Measurements from patent US20240327535A1 (EISAI R AND D MANAGEMENT, published 2024).

T1: human BCMA on NCI-H929, OPM2 and Raji cells (human, UniProt Q02223 1-184)
T1 construct: endogenous BCMA of human cell lines; also called TNFRSF17; CD269
T1 chain: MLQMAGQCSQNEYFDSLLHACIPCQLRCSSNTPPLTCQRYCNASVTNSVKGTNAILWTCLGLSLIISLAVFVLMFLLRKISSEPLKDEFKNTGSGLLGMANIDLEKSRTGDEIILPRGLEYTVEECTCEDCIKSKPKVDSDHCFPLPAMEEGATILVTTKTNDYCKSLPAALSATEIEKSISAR

T2: extracellular domain of human BCMA (human, UniProt Q02223 1-54)
T2 construct: amine-linked to Octet AR2G tips; also called hsBCMA; BCMA (human)
T2 sequence: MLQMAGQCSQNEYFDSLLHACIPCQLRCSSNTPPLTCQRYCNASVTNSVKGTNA


Legend:
[1] = target: T1, human BCMA on NCI-H929, OPM2 and Raji …; assay: flow cytometry, NCI-H929 cells
[2] = target: T1, human BCMA on NCI-H929, OPM2 and Raji …; assay: flow cytometry on NCI-H929 cells (BCMA high), fluorescent anti-human IgG1 secondary antibody, MFI against test article concentration
[3] = target: T1, human BCMA on NCI-H929, OPM2 and Raji …; assay: cell-based or functional assay
[4] = target: T3, extracellular domain of rhesus monkey BCMA (rhesus monkey, UniProt F7FFA0 1-53); assay: Octet BLI; Fab 200 nM
T3 construct: extracellular domain; also called RhBCMA
T3 sequence (F7FFA0 entry or part of it): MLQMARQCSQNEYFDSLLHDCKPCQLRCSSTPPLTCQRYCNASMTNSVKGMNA

[5] = target: T2, extracellular domain of human BCMA; assay: Octet BLI; Fab 200 nM

Binder | Kd [4] | Kd [5] | also measured
AB212-ADL1-D2-02 (antibody, human IgG1, kappa, V domains shown, ADL1-D2 linker-payload on cysteine residues of the antibody, DAR 5.17) VH: QVQLVQSGAEVKKPGSSVKVSCKASGGTFSNYWIHWVRQAPGQGLEWMGGTYRSHSDTNYNQKFKSRVTITADKSTSTAYMELSSLRSEDTAVYYCARGAIYHGYDVIENWGQGTLVTVSS VL: DIQMTQSPSSLSASVGDRVTITCRASQSISSYLNWYQQKPGKAPKLLIYATSNLQIGVPSRFSGSGSGTDFTLTISSLQPEDFATYYCQQFRRLPWTFGQGTKLEIKR | – | – | Kd [1]: 1.3 nM
AB213-ADL1-D2-02 (antibody, human IgG1, kappa, V domains shown, ADL1-D2 linker-payload on cysteine residues of the antibody, DAR 4.18) VH: QVQLVQSGAEVKKPGSSVKVSCKASGGTFTNYWIHWVRQAPGQGLEWMGGTYRSHSTTYYNQKFKSRVTITADKSTSTAYMELSSLRSEDTAVYYCARGAVYHGYDVIDNWGQGTLVTVSS VL: DIQMTQSPSSLSASVGDRVTITCRASQSISSYLNWYQQKPGKAPKLLIYATSNLQIGVPSRFSGSGSGTDFTLTISSLQPEDFATYYCQQFRRLPWTFGQGTKLEIKR | – | – | EC50 (read off the curve) [2]: ~0.6 nM; Kd [1]: 0.5 nM
AB218-ADL1-D2-02 (antibody, human IgG1, kappa, V domains shown, ADL1-D2 linker-payload on cysteine residues of the antibody, DAR 3.77) VH: QVQLVQSGAEVKKPGSSVKVSCKASGGTFSNYWIHWVRQAPGQGLEWMGATYRSQSTTYYNQKFKSRVTITADKSTSTAYMELSSLRSEDTAVYYCARGAVYHGYDVIDNWGQGTLVTVSS VL: DIQMTQSPSSLSASVGDRVTITCRASQSISSYLNWYQQKPGKAPKLLIYATSNLQIGVPSRFSGSGSGTDFTLTISSLQPEDFATYYCQQFRRLPWTFGQGTKLEIKR | – | – | GI50 (nM) OPM2.1, cell viability [3]: 0.985 nM; LD50 (nM) OPM2.1, cell viability [3]: 19.8 nM; Kd [1]: 0.333 nM
AB200-ADL1-D12-05 (antibody, human IgG1, kappa, V domains shown, ADL1-D12 linker-payload on cysteine residues of the antibody, DAR 4.24, antibody-drug conjugate) VH: QVQLVQSGAEVKKPGSSVKVSCKASGGTFSNYWMHWVRQAPGQGLEWMGATYRGHSDTYYNQKFKGRVTITADKSTSTAYMELSSLRSEDTAVYYCARGAIYDGYDVLDNWGQGTLVTVSS VL: DIQMTQSPSSLSASVGDRVTITCSASQDISNYLNWYQQKPGKAPKLLIYYTSNLHSGVPSRFSGSGSGTDFTLTISSLQPEDFATYYCQQYRKLPWTFGQGTKLEIKR | – | – | EC50 (read off the curve) [2]: ~9 nM; Kd [1]: 9.7 nM
AB200-ADL1-D2-02 (antibody, human IgG1, kappa, V domains shown, ADL1-D2 linker-payload on cysteine residues of the antibody, DAR 3.92, antibody-drug conjugate; also called AB200 ADC incorporating the ADL1-D2 linker-payload) VH: QVQLVQSGAEVKKPGSSVKVSCKASGGTFSNYWMHWVRQAPGQGLEWMGATYRGHSDTYYNQKFKGRVTITADKSTSTAYMELSSLRSEDTAVYYCARGAIYDGYDVLDNWGQGTLVTVSS VL: DIQMTQSPSSLSASVGDRVTITCSASQDISNYLNWYQQKPGKAPKLLIYYTSNLHSGVPSRFSGSGSGTDFTLTISSLQPEDFATYYCQQYRKLPWTFGQGTKLEIKR | – | – | EC50 (read off the curve) [2]: ~9 nM; Kd [1]: 9.66 nM
AB200-(2Vk44)_R2-VH-v24 (Fab, V domains shown) VH: QVQLVQSGAEVKKPGSSVKVSCKASGGTFSNYWIHWVRQAPGQGLEWMGGTYRSHSDTYYNEKFKSRVTITADKSTSTAYMELSSLRSEDTAVYYCARGAIFHGYDVIDNWGQGTLVTVSS VL: DIQMTQSPSSLSASVGDRVTITCRASQSISSYINWYQQKPGKAPKLLIYATSNLQIGVPSRFSGSGSGTDFTLTISSLQPEDFATYYCQQYRRLPWSFGQGTKLEIKR | 20.8 nM | 6.44 nM | –
AB200-(2Vk44)_R2-VH-v28 (Fab, V domains shown) VH: QVQLVQSGAEVKKPGSSVKVSCKASGGTFSNYWIHWVRQAPGQGLEWMGATYRSHSTTYYNQKYKSRVTITADKSTSTAYMELSSLRSEDTAVYYCARGAIYHGFDVIDNWGQGTLVTVSS VL: DIQMTQSPSSLSASVGDRVTITCRASQSISSYINWYQQKPGKAPKLLIYATSNLQIGVPSRFSGSGSGTDFTLTISSLQPEDFATYYCQQYRRLPWSFGQGTKLEIKR | 20.9 nM | 10.9 nM | –
AB200-(2Vk44)_R2-VH-v35 (Fab, V domains shown) VH: QVQLVQSGAEVKKPGSSVKVSCKASGGTFSNYWIHWVRQAPGQGLEWMGATYRSHSDTYYAQKYKSRVTITADKSTSTAYMELSSLRSEDTAVYYCARGAIYHGYDVIENWGQGTLVTVSS VL: DIQMTQSPSSLSASVGDRVTITCRASQSISSYINWYQQKPGKAPKLLIYATSNLQIGVPSRFSGSGSGTDFTLTISSLQPEDFATYYCQQYRRLPWSFGQGTKLEIKR | 52.8 nM | 16.2 nM | –
AB200-(2Vk44)_R2-VH-v41 (Fab, V domains shown) VH: QVQLVQSGAEVKKPGSSVKVSCKASGGTFTNYWIHWVRQAPGQGLEWMGGTYRIHSDTYYNEKFKSRVTITADKSTSTAYMELSSLRSEDTAVYYCARGAIYHGFDVIDNWGQGTLVTVSS VL: DIQMTQSPSSLSASVGDRVTITCRASQSISSYINWYQQKPGKAPKLLIYATSNLQIGVPSRFSGSGSGTDFTLTISSLQPEDFATYYCQQYRRLPWSFGQGTKLEIKR | 12.6 nM | 3.73 nM | –
AB200-(2Vk44)_R2-VH-v44 (Fab, V domains shown) VH: QVQLVQSGAEVKKPGSSVKVSCKASGGTFTNYWIHWVRQAPGQGLEWMGATYRIHSDTNYAQKFKSRVTITADKSTSTAYMELSSLRSEDTAVYYCARGAIYHGYDVIENWGQGTLVTVSS VL: DIQMTQSPSSLSASVGDRVTITCRASQSISSYINWYQQKPGKAPKLLIYATSNLQIGVPSRFSGSGSGTDFTLTISSLQPEDFATYYCQQYRRLPWSFGQGTKLEIKR | 290 nM | 86.4 nM | –
AB200-(2Vk44)_R2-VH-v53 (Fab, V domains shown) VH: QVQLVQSGAEVKKPGSSVKVSCKASGGSFSNYWIHWVRQAPGQGLEWMGATYRIHSDTNYNQKYKSRVTITADKSTSTAYMELSSLRSEDTAVYYCARGAIFHGYDVIDNWGQGTLVTVSS VL: DIQMTQSPSSLSASVGDRVTITCRASQSISSYINWYQQKPGKAPKLLIYATSNLQIGVPSRFSGSGSGTDFTLTISSLQPEDFATYYCQQYRRLPWSFGQGTKLEIKR | 103 nM | 52.5 nM | –
AB200-(2Vk44)_R2-VH-v54 (Fab, V domains shown) VH: QVQLVQSGAEVKKPGSSVKVSCKASGGSFSNYWIHWVRQAPGQGLEWMGATYRIHSDTNYNEKFKSRVTITADKSTSTAYMELSSLRSEDTAVYYCARGAIYHGYDVIENWGQGTLVTVSS VL: DIQMTQSPSSLSASVGDRVTITCRASQSISSYINWYQQKPGKAPKLLIYATSNLQIGVPSRFSGSGSGTDFTLTISSLQPEDFATYYCQQYRRLPWSFGQGTKLEIKR | 151 nM | 68.8 nM | –
AB200-(2Vk44)_R2-VH-v58 (Fab, V domains shown) VH: QVQLVQSGAEVKKPGSSVKVSCKASGGTFSNYWIHWVRQAPGQGLEWMGGTYRIHSDTNYNQKFKSRVTITADKSTSTAYMELSSLRSEDTAVYYCARGAIYHGFDVIDNWGQGTLVTVSS VL: DIQMTQSPSSLSASVGDRVTITCRASQSISSYINWYQQKPGKAPKLLIYATSNLQIGVPSRFSGSGSGTDFTLTISSLQPEDFATYYCQQYRRLPWSFGQGTKLEIKR | 52.6 nM | 27.2 nM | –
AB200-(2Vk44)_R2-VH-v60 (Fab, V domains shown) VH: QVQLVQSGAEVKKPGSSVKVSCKASGGTFSNYWIHWVRQAPGQGLEWMGGTYRIQSDTYYNQKFKSRVTITADKSTSTAYMELSSLRSEDTAVYYCARGAIYHGYDVIENWGQGTLVTVSS VL: DIQMTQSPSSLSASVGDRVTITCRASQSISSYINWYQQKPGKAPKLLIYATSNLQIGVPSRFSGSGSGTDFTLTISSLQPEDFATYYCQQYRRLPWSFGQGTKLEIKR | 38.6 nM | 11.1 nM | –
AB200-(2Vk44)_R2-VH-v61 (Fab, V domains shown) VH: QVQLVQSGAEVKKPGSSVKVSCKASGGTFSNYWIHWVRQAPGQGLEWMGGTYRIHSDTYYNQKYKSRVTITADKSTSTAYMELSSLRSEDTAVYYCARGAIYHGYDVIENWGQGTLVTVSS VL: DIQMTQSPSSLSASVGDRVTITCRASQSISSYINWYQQKPGKAPKLLIYATSNLQIGVPSRFSGSGSGTDFTLTISSLQPEDFATYYCQQYRRLPWSFGQGTKLEIKR | 59.6 nM | 19.2 nM | –
AB200-(2Vk44)_R2-VH-v64 (Fab, V domains shown) VH: QVQLVQSGAEVKKPGSSVKVSCKASGGTFSNYWIHWVRQAPGQGLEWMGATYRIHSTTYYAQKFKSRVTITADKSTSTAYMELSSLRSEDTAVYYCARGAIYHGFDVIDNWGQGTLVTVSS VL: DIQMTQSPSSLSASVGDRVTITCRASQSISSYINWYQQKPGKAPKLLIYATSNLQIGVPSRFSGSGSGTDFTLTISSLQPEDFATYYCQQYRRLPWSFGQGTKLEIKR | 36.5 nM | 22.1 nM | –
AB200-(2Vk44)_R2-VH-v68 (Fab, V domains shown) VH: QVQLVQSGAEVKKPGSSVKVSCKASGGTFSNYWIHWVRQAPGQGLEWMGATYRIHSDTNYAQKFKSRVTITADESTSTAYMELSSLRSEDTAVYYCARGAIYHGFDVIDNWGQGTLVTVSS VL: DIQMTQSPSSLSASVGDRVTITCRASQSISSYINWYQQKPGKAPKLLIYATSNLQIGVPSRFSGSGSGTDFTLTISSLQPEDFATYYCQQYRRLPWSFGQGTKLEIKR | 110 nM | 60.3 nM | –
AB200-(2Vk44)_R2-VH-v70 (Fab, V domains shown) VH: QVQLVQSGAEVKKPGSSVKVSCKASGGTFSNYWIHWVRQAPGQGLEWMGATYRIHSDTNYNQKYKSRVTITADKSTSTAYMELSSLRSEDTAVYYCARGAVYHGYDVIDNWGQGTLVTVSS VL: DIQMTQSPSSLSASVGDRVTITCRASQSISSYINWYQQKPGKAPKLLIYATSNLQIGVPSRFSGSGSGTDFTLTISSLQPEDFATYYCQQYRRLPWSFGQGTKLEIKR | 35.8 nM | 12.4 nM | –
AB200-(2Vk44)_R2-VH-v72 (Fab, V domains shown) VH: QVQLVQSGAEVKKPGSSVKVSCKASGGTFSNYWIHWVRQAPGQGLEWMGATYRIQSDTYYAQKFKSRVTITADKSTSTAYMELSSLRSEDTAVYYCARGAVYHGYDVIDNWGQGTLVTVSS VL: DIQMTQSPSSLSASVGDRVTITCRASQSISSYINWYQQKPGKAPKLLIYATSNLQIGVPSRFSGSGSGTDFTLTISSLQPEDFATYYCQQYRRLPWSFGQGTKLEIKR | 12.4 nM | 2.16 nM | –
